From patent US20020058247A1 (TRIPEP, published 2002) come the findings set out here.

Experiment [1] has as its target T1, Full length recombinant HBcAg (rHBcAg) encompassing residues 1-183 (hepatitis B virus, UniProt P03146 1-183).
T1 construct: range 1-183; also called hepatitis B virus core antigen
Description: EIA, support-bound peptide, HBcAg 5 ug/ml.

The target of experiment [2] is T1, Full length recombinant HBcAg (rHBcAg) …. Description: EIA, support-bound peptide, HBcAg 2 ug/well.
In experiment [3] the target is T2, non-structural 3 protein (NS3) of the hepatitis C virus (HCV) (hepatitis C virus).
T2 construct: Control antigen; also called HCV NS3
Description: EIA, support-bound peptide, HCV NS3 control.

The target of experiment [4] is T1, Full length recombinant HBcAg (rHBcAg) …. Description: EIA, support-bound peptide, HBcAg 2.5 ug/ml.
Experiment [5] has the same target. Description: EIA, support-bound peptide, HBcAg 0.67 ug/ml.
Experiment [6] shares this target. Description: EIA, support-bound peptide, HBcAg 1.25 ug/ml.
For experiment [7] the target is unchanged. Description: EIA, peptide coated 50 ug/ml, HBcAg 10 ug/ml.
For experiment [8] the target is unchanged. The experiment in a line: EIA, peptide coated 100 ug/ml, HBcAg 10 ug/ml.
Experiment [9] has the same target. Description: EIA, peptide coated 12.5 ug/ml, HBcAg 10 ug/ml.
The target is the same in experiment [10]. Description: competition EIA, peptide added to HBcAg before mAb 4-2 (competitor); OD of bound mAb.
The target is the same in experiment [11]. Description: competition EIA, HBcAg coated 1 ug/ml, peptide 100 ug/ml before mAb 4-2 (competitor); OD of bound mAb.
Experiment [12] shares this target. Description: competition EIA, HBcAg coated 5 ug/ml, peptide 25 ug/ml together with mAb 4-2 (competitor); OD of bound mAb.
The target is the same in experiment [13]. Description: competition EIA, HBcAg coated 5 ug/ml, peptide 100 ug/ml together with mAb 4-2 (competitor); OD of bound mAb.

T1 sequence (P03146 whole entry, the tested form may be a part): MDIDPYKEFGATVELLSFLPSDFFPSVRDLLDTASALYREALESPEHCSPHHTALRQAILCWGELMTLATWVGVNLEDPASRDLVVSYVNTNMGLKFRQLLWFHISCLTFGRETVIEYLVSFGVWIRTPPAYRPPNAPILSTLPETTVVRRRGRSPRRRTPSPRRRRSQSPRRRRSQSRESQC

B1: VKPGASVKLSCKASGYIFTS (SEQ. ID. No. 5) (peptide)
peptide: VKPGASVKLSCKASGYIFTS
notes: also called Peptide # 2; Pept. #2
As for B1, the “OD at 490 nm” value in [1] turned out to be 3.26 OD; in experiment [10] it was 0.453 OD; in [11], 0.083 OD; in [12], 0.698 OD; in experiment [13] it was 0.194 OD. In addition, the “OD at 405 nm” value in [2] is 3.69 OD; in experiment [3], 0.269 OD. For the same molecule, the OD came out at 0.374 OD in [4]; 0.034 OD in [5]; 0.155 OD in experiment [6]; 1.22 OD in experiment [7]; 1.45 OD in [8]; 0.913 OD in experiment [9].

B2: VKPGASVKISCKASGYSFTG (SEQ. ID. No. 28) (peptide)
peptide: VKPGASVKISCKASGYSFTG
notes: also called Peptide # 25
As to B2, the entries for the “OD at 405 nm” value in experiment [2] and in experiment [3] were 3.13 OD and 0.097 OD, respectively. The OD worked out at 0.159 OD in [4]; 0.036 OD in experiment [5]; 0.058 OD in [6]; 0.766 OD in experiment [7]; 1.01 OD in experiment [8]; 0.423 OD in [9]. Moreover, the “OD at 490 nm” value was found to be 0.274 OD in [11], 1.2 OD in [12] and 0.91 OD in experiment [13].

B3: LAVSLGQRATISCRASQSVS (SEQ. ID. No. 16) (peptide)
peptide: LAVSLGQRATISCRASQSVS
Turning to B3, the “OD at 405 nm” value was found to be 3.11 OD in experiment [2] and 0.128 OD in experiment [3]. Further, the OD was determined as 0.195 OD in experiment [4]; 0.028 OD in [5]; 0.079 OD in experiment [6]; 0.434 OD in experiment [7]; 0.9 OD in [8]; 0.24 OD in [9]. For the same molecule, the “OD at 490 nm” value is 0.345 OD in [11], 1.03 OD in experiment [12] and 0.891 OD in [13].

B4: CKASGYSFTGYNMNWVKQSH (SEQ. ID. No. 29) (peptide)
peptide: CKASGYSFTGYNMNWVKQSH
notes: also called Peptide # 26
Turning to B4, the “OD at 405 nm” value in [2] came out at 2.29 OD; in [3] it was 0.053 OD. In addition, the OD worked out at 0.101 OD in experiment [4]; 0.028 OD in [5]; 0.038 OD in experiment [6]; 0.198 OD in experiment [7]; 0.422 OD in [8]; 0.179 OD in experiment [9]. The figures for the “OD at 490 nm” value in [11], in [12] and in experiment [13] were 0.28 OD, 1.35 OD and 0.947 OD, respectively.

B5: ISCRASQSVSTSSYSYMHWY (SEQ. ID. No. 17) (peptide)
peptide: ISCRASQSVSTSSYSYMHWY
On to B5, for which the “OD at 490 nm” value in experiment [1] was 1.94 OD; in experiment [11], 0.37 OD; in experiment [12], 1.39 OD; in [13], 1.46 OD. The figures for the “OD at 405 nm” value in experiment [2] and in experiment [3] were 2.48 OD and 0.156 OD, respectively. The OD in experiment [4] was 0.252 OD; in experiment [5] it was 0.039 OD; in experiment [6], 0.117 OD; in experiment [7] it was 0.569 OD; in [8], 0.641 OD; in [9], 0.514 OD.
